The text below walks through data of patent US20120004175A1 (RESEARCH FOUNDATION OF STATE UNIVERSITY OF NEW YORK, published 2012).

The experiment concerns the target T1, NF-κB p65 (mouse, intestinal epithelial cells of wild-type C57BL/6J and Min mice) (mouse, UniProt Q04207 1-549).
T1 construct: Endogenous mouse protein
Description: anti-p65 immunoprecipitation of nuclear extract from mouse intestinal epithelial cells, immunoblot.

T1 sequence (Q04207 whole entry): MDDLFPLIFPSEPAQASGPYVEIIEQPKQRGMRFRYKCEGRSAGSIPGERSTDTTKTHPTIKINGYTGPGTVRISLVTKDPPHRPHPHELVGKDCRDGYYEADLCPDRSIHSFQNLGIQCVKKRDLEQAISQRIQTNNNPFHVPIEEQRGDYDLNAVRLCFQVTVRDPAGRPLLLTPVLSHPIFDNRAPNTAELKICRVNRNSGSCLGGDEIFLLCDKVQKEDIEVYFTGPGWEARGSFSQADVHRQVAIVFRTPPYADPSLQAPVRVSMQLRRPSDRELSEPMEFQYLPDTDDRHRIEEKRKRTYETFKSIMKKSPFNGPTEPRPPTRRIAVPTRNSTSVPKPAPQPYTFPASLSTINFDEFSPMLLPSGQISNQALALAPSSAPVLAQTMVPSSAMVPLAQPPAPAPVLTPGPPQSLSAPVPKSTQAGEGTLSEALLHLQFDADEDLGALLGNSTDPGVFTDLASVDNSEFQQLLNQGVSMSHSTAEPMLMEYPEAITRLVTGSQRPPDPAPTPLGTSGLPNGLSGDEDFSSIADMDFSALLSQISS

B1: annexin 1 (mouse, intestinal epithelial cells of wild-type C57BL/6J and Min mice) (other, UniProt P10107 2-346, looked up)
chain: AMVSEFLKQARFLENQEQEYVQAVKSYKGGPGSAVSPYPSFNVSSDVAALHKAIMVKGVDEATIIDILTKRTNAQRQQIKAAYLQENGKPLDEVLRKALTGHLEEVVLAMLKTPAQFDADELRGAMKGLGTDEDTLIEILTTRSNEQIREINRVYREELKRDLAKDITSDTSGDFRKALLALAKGDRCQDLSVNQDLADTDARALYEAGERRKGTDVNVFTTILTSRSFPHLRRVFQNYGKYSQHDMNKALDLELKGDIEKCLTTIVKCATSTPAFFAEKLYEAMKGAGTRHKALIRIMVSRSEIDMNEIKVFYQKKYGISLCQAILDETKGDYEKILVALCGGN
notes: Endogenous mouse protein; also called induced annexin 1
For the molecule B1, the binding result is on record as “binds”.
